In US20180222956A1:
Where two headings read alike, the source gives them in different places.

Columns and labels:
Test in all cases: cell-based or functional assay
Human TGFβ1 (human) [1] = target: Human TGFβ1 (human) (UniProt P01137)
Human TGFβ3 (human) [2] = target: Human TGFβ3 (human) (UniProt P10600)
Human TGFβ1 (human) [3] = target: Human TGFβ1 (human) (UniProt P01137); remark: listed apart in the source
Human TGFβ3 (human) [4] = target: Human TGFβ3 (human) (UniProt P10600); remark: listed apart in the source

Human TGFβ1 (human), sequence (P01137 279-390 limits assumed): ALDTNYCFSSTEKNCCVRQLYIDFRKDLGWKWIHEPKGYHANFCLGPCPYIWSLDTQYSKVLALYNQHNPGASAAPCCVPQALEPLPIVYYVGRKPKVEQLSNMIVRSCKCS
hTβRIIshort(23-159)-hG2Fc (Fc fusion), sequence (chain): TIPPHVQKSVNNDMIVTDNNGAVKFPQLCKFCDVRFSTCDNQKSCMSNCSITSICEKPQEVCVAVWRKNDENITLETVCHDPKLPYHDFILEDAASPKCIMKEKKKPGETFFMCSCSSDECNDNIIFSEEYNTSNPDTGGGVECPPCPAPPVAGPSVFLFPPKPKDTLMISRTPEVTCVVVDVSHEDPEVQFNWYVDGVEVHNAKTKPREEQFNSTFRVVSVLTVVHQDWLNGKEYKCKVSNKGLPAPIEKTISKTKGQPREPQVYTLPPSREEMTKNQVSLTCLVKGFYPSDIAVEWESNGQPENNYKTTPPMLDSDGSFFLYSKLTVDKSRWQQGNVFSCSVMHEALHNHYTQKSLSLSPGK
Human TGFβ3 (human), sequence (P10600 301-412 limits assumed): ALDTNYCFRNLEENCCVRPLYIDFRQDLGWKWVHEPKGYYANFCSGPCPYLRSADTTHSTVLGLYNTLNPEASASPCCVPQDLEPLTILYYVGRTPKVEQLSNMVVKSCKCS
hTβRIIshort(23-153)-hG2Fc (Fc fusion), sequence (chain): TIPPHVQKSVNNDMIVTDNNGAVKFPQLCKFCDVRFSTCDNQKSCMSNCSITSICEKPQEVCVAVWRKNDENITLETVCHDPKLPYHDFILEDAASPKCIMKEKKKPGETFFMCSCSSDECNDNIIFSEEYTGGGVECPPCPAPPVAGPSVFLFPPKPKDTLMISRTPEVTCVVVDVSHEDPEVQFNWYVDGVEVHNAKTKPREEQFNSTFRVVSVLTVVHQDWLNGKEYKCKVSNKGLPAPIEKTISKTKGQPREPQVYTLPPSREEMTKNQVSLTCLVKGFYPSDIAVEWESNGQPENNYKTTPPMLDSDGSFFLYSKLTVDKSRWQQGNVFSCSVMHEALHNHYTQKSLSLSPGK
hTβRIIshort(35-159)-hG2Fc (Fc fusion), sequence (chain): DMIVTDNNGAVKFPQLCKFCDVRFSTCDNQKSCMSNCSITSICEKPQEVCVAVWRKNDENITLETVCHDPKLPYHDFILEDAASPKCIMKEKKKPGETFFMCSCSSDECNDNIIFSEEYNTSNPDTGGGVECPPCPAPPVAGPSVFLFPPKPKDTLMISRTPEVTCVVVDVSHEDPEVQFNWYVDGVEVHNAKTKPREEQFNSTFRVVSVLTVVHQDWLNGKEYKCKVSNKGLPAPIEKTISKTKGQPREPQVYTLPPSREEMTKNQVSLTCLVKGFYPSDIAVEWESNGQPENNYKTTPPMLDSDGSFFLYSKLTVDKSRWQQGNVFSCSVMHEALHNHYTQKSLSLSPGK
hTβRIIshort(29-159)-hG2Fc (Fc fusion), sequence (chain): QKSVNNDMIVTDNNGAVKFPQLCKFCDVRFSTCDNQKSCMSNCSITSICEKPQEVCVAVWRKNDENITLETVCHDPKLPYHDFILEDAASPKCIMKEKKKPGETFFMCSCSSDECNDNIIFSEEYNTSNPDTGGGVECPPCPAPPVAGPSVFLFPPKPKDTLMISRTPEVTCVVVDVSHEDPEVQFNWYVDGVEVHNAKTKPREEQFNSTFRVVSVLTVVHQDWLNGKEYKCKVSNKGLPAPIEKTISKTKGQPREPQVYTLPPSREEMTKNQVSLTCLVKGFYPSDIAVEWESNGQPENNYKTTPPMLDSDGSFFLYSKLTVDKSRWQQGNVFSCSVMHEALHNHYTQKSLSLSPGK

IC50 (nM), A549 CAGA12 reporter gene assay, hTGFβ1 (640 pg/ml) (Human TGFβ1 (human) [1]) | IC50 (nM), A549 CAGA12 reporter gene assay, hTGFβ3 (270 pg/ml) (Human TGFβ3 (human) [2]) | IC50 (nM), A549 CAGA12 reporter gene assay, hTGFβ1 (640 pg/ml) (Human TGFβ1 (human) [3]) | IC50 (nM), A549 CAGA12 reporter gene assay, hTGFβ3 (270 pg/ml) (Human TGFβ3 (human) [4]) | Substance
17.7 nM |  |  |  | hTβRIIshort(23-153/N70D)-hG2Fc (Fc fusion)
 | > 7.5 nM | 2.51 nM |  | hTβRIIshort(35-159)-hG2Fc (Fc fusion)
 | > 7.5 nM | 2.05 nM |  | hTβRIIshort(29-159)-hG2Fc (Fc fusion)
2.62 nM |  |  | 0.14 nM | hTβRIIshort(23-153)-hG2Fc (Fc fusion)
> 73.6 nM |  |  |  | hTβRIIshort(23-159/D110K)-hG2Fc (Fc fusion)
1.73 nM | 0.37 nM | 0.52 nM | 0.14 nM | hTβRIIshort(23-159)-hG2Fc (Fc fusion)
